We go through three molecules from patent US20090041679A1.

The target of experiment [1] is purified H5N1 HA (influenza A virus H5N1).
The target is the same in experiment [2]. The source holds these as a separate data set.

Numbering of substitutions follows the chain as printed. Where two headings read alike, the source gives them in different places.

B1: BF1-10 (antibody, V domains shown)
VH: QVQLQESGPGLVKPSQTLSLTCAVSGGSISSRGYYWSWIRQPPGKGLEWIGYIFYTGGTDYNPSLKSRITISRDTPKNQISLNLSSVTAADTAVYYCARVVDGSSGYHHYYFDYWGQGTLVTVSS
VL: DIQMTQSPASLAVSLGQRATISYRASKSVSTSGYSYMHWNQQKPGQPPRLLIYLVSNLESGVPARFSGSGSGTDFTLNIHPVEEEDAATYYCQHIRELTRSEGGPSWRSN
One may read the Kd as the concentration at which binding is half-saturated. A lower Kd goes with higher affinity. For B1, the Kd was 10 to 50 nM in experiment [1] and 10.8 nM in experiment [2].

B2: BF1-19 (antibody, V domains shown)
VH: QVQLQESGPGLVKPSETLSLTCTVSGSSMRTHYWTWIRQPPGKGLEWIGNIYYSGSTDYNPSLKSRVTISVDTSKNQFSLKLSSVTAADTAVYFCARTKHFDILPGGVFDMWGRGTTVSS
VL: B1 VL with Q3V, S106K, R108I
In the case of B2, the figures for the Kd in experiment [1] and in experiment [2] were 10 to 50 nM and 48.2 nM, respectively.

B3: BF1-1 (antibody, V domains shown)
VH: EVQLVQSGPGLVKPSETLSLTCTVSGSSMRTHYWTWIRQPPGKGLEWIGNIYYSGSTDYNPSLKSRVTISVDTSKNQFSLKLSSVTAADTAVYFCARTKHFDILPGGVFDMWGRGTTVTVSS
VL: SYELTQLPSVSVSPGQTATITCSGDRLGDKYACWYQQKPGQSPVLVIFQDTKRPSGIPERFSGSNSGNTATLTISGTQAMDEADYYCQAWDSNIGVFGGGTKLTVL
In experiment [2], B3 had an equilibrium dissociation constant (Kd) of 20.3 nM.
